Measurements reported in EP4813396A2 (Amphivena Therapeutics, Inc., dated 2026).
Several values for one entry are separate records, joined by “and”; a condition that tells them apart may be missing. Equal entries are not always repeated.

Tests used:
human CD33 on cells [1] = biological target: T1, human CD33 on cells (human, UniProt P20138 18-364); assay: cell-based or functional assay
human CD3 on T cells [2] = biological target: T2, human CD3 on T cells (human, UniProt P07766 23-207); assay: flow cytometry, human T-cells (as headed in Table 10)
T2 construct: whole, on cells; also called hu CD3; CD3 on Jurkat cells

human CD33 on cells [3] = biological target: T1, human CD33 on cells; assay: cell-based or functional assay; remark: listed apart in the source
human CD33 on cells [4] = biological target: T1, human CD33 on cells; assay: flow cytometry, titration on U-937 cells
human CD33 on cells [5] = biological target: T1, human CD33 on cells; assay: flow cytometry, titration on HL-60 cells
[6] = biological target: cynomolgus CD33 on CHO cells (cynomolgus monkey); assay: flow cytometry; KD on CHO-cynomolgus CD33 cells divided by KD on CHO-human CD33 cells
human CD3 on T cells [7] = biological target: T2, human CD3 on T cells; assay: flow cytometry, titration on human CD3+ T cells (Jurkat per paragraph 124/paragraph 125)
human CD33 on cells [8] = biological target: T1, human CD33 on cells; assay: cell-based or functional assay; remark: listed apart in the source
human CD33 on cells [9] = biological target: T1, human CD33 on cells; assay: flow cytometry, titration on KG-1 cells
human CD3 on T cells [10] = biological target: T2, human CD3 on T cells; assay: cell-based or functional assay
human CD33 on cells [11] = biological target: T1, human CD33 on cells; assay: flow cytometry, HL-60 cells
human CD33 on cells [12] = biological target: T1, human CD33 on cells; assay: cell-based or functional assay; remark: listed apart in the source
human CD33 on cells [13] = biological target: T1, human CD33 on cells; assay: cell-based or functional assay; remark: listed apart in the source

T2 sequence (P07766 23-207): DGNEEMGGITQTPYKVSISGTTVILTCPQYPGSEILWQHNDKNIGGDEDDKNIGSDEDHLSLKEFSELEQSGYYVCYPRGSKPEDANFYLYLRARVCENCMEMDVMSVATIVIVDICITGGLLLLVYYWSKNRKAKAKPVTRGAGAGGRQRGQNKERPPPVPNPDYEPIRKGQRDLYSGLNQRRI
T1 sequence (P20138 18-364): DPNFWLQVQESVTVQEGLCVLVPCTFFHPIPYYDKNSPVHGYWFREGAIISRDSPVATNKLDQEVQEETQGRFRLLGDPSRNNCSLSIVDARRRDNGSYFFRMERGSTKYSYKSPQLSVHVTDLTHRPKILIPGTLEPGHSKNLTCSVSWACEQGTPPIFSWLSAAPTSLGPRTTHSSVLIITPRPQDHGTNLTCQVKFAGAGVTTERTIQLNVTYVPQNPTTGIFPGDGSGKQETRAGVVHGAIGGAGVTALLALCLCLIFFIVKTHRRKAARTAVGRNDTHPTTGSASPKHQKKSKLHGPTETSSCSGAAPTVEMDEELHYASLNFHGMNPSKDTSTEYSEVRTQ

- Kd (human CD3 on T cells [2]): 5.1 nM
- IC50, lysis of KG-1 cells (separate experiment) (human CD33 on cells [3]): 0.005 nM
- IC50, lysis of KG-1 cells with human T cells (E:T 5:1, 24 h) (human CD33 on cells [3]): ~0.0005 nM
- Kd (human CD33 on cells [4]): 0.3 nM
- Kd (human CD33 on cells [5]): 0.3 nM
- KD ratio cynoCD33/ huCD33 [6]: 1.4
- Kd (human CD3 on T cells [7]): 2.1 nM
- EC50 [pM (pg/mL)] on human CD33+ target cell lines: mean of HL-60, U-937, KG-1 (human CD33 on cells [8]): 1.7 pM and 179 pg/mL
- Kd (human CD33 on cells [9]): 0.2 nM
- CD25 Induction EC50 (pM) (human CD3 on T cells [10]): 1 pM
- CD69 Induction EC50 (pM) (human CD3 on T cells [10]): 2 pM
- T cell Proliferation in PBMC EC50 (pM) (human CD3 on T cells [10]): 3 pM
- Kd (human CD33 on cells [11]): 0.3 nM
- EC50 [pM], calcein release, HL-60 targets, E:T 25:1, incubation 30 min (human CD33 on cells [13]): 4.8 pM
- EC50 [pM], calcein release, HL-60 targets, E:T 25:1, incubation 60 min (human CD33 on cells [13]): 2.5 pM
- EC50 [pM], calcein release, HL-60 targets, E:T 25:1, incubation 120 min (human CD33 on cells [13]): 1.6 pM
- EC50 [pM], calcein release, HL-60 targets, E:T 25:1, incubation 180 min (human CD33 on cells [13]): 1.6 pM
- EC50 [pM], calcein release, HL-60 targets, E:T 25:1, incubation 240 min (human CD33 on cells [13]): 1.5 pM
- EC50 [pM], calcein release, HL-60 targets, E:T 25:1, incubation 300 min (human CD33 on cells [13]): 1.6 pM
B1: CD33/CD3 tandem diabody 16 (bispecific antibody)
chain: DIQMTQSPSSLSASVGDRVTITCRSSTGAVTTSNYANWVQQKPGKAPKALIGGTNKRAPGVPSRFSGSLIGDKATLTISSLQPEDFATYYCALWYSNLWVFGQGTKVEIKGGSGGSQVQLVQSGAEVKKPGASVKVSCKASGYTFTSYDINWVRQAPGQGLEWMGWMNPNSGNTGFAQKFQGRVTMTRDTSTSTVYMELSSLRSEDTAVYYCARDRANTDYSLGMDVWGQGTLVTVSSGGSGQSVLTQPPSASGTPGQRVTISCSGSRSNIGSNTVNWYQQLPGTAPKLLIYGNNQRPSGVPDRFSGSKSGTSASLAISGLQSEDEADYYCATWDDSLIGWVFGGGTKLTVLGGSGGSEVQLVESGGGLVQPGGSLRLSCAASGFTFSTYAMNWVRQAPGKGLEWVGRIRSKYNNYATYYADSVKDRFTISRDDSKNSLYLQMNSLKTEDTAVYYCARHGNFGNSYVSYFAYWGQGTLVTVSSAAAGSHHHHHH
notes: Non-covalent homodimer; domain order 1; also called TandAb 16
- EC50 on HL-60 [pM] (cytotoxicity) (human CD33 on cells [1]): 1.5 pM
- EC50 [pM (pg/mL)] on human CD33+ target cell lines: HL-60 (cytotoxicity, E:T 5:1, 20-24 h) (human CD33 on cells [8]): 1.5 pM and 158 pg/mL
- EC50 [pM (pg/mL)] on human CD33+ target cell lines: KG-1 (cytotoxicity, E:T 5:1, 20-24 h) (human CD33 on cells [8]): 1.8 pM and 189 pg/mL
- EC50 [pM (pg/mL)] on human CD33+ target cell lines: U-937 (cytotoxicity, E:T 5:1, 20-24 h) (human CD33 on cells [8]): 1.9 pM and 200 pg/mL
- EC50 [pM] mean, cytotoxicity on BV-173 cells (human CD33 on cells [12]): 3.2 pM
- EC50 [pM] mean, cytotoxicity on CHO-CD33 cells (human CD33 on cells [12]): 24 pM
- EC50 [pM] mean, cytotoxicity on HL-60 cells (human CD33 on cells [12]): 1.6 pM
- EC50 [pM] mean, cytotoxicity on K562 cells (human CD33 on cells [12]): 4.8 pM
- EC50 [pM] mean, cytotoxicity on KASUMI-1 cells (human CD33 on cells [12]): 2.4 pM
- EC50 [pM] mean, cytotoxicity on KG-1 cells (human CD33 on cells [12]): 1.9 pM
- EC50 [pM] mean, cytotoxicity on RPMI-8226 cells (human CD33 on cells [12]): 2.8 pM
- EC50 [pM] mean, cytotoxicity on THP-1 cells (human CD33 on cells [12]): 6 pM
- EC50 [pM] mean, cytotoxicity on U-937 cells (human CD33 on cells [12]): 1.3 pM
